The text below walks through data of patent US20240287489A1, “CHITINOLYTIC ENZYME-BASED PLANT PROTECTION AGENTS” (GLOBACHEM NV, priority 2021, published 2024).

Common to all, as to format: biochemical
The nature of data set [1]: TLC analysis of cleavage patterns with chitin standard molecules. The conditions noted are these: for hydrolysis products from chitin pentamers / hydrolysis products from chitin trimers: 4 mg/ml, 16 h, TLC; for cleavage mechanism (exo-/endo-chitinase activity): TLC of products from oligomeric or polymeric chitin substrates. Here is the method: monomeric oligomers. Chitosan was degraded to a crude mixture of multiple oligomers ranging from dimers to pentamers and even larger undefined yet water-soluble fragments that migrated slightly from the starting point. Further analysis of the cleavage patterns was carried out using chitin standard molecules of DP2-DP6 and incubating them at 4 mg/ml concentration with the individual enzymes (FIG. 9).
Dimeric chitin molecules were not converted by any of the enzymes. […] All chitinases degraded chitin tetramers to dimers as a single product. […] Chitin hexamers were degraded to dimers and trimers. Although all chitinases are different in their structure and present different glycosyl hydrolase domains hydrolysis products in general were similar.
C2, 4 and 5 yielded similar product patterns when incubated with insoluble substrates. […] The presented data underline that the novel chitinases are all suited for the degradation of powdery chitin without any further harsh chemical pre-treatment.
Hydrolysis products were analyzed using 10×10 cm TLC Silica gel 60 F254 plates (Merck, Darmstadt, Germany) and a mixture of butanol:methanol:25% ammonia:H2O (5:4:2:1) as mobile phase. A total sample volume of 0.5 μl was applied in 0.25 μl spots. Chitin standard sugars (Megazyme, Chicago, USA) (5 mg/ml) were applied to the plate (0.5 μL in 0.25 μL spots) as size standard for the determination of the DP. After separation, the plate was air-dried and the developing solution (200 ml Acetone, 30 ml phosphoric acid (85%), 4 ml aniline, 4 g diphenylamine) was sprayed on the plate followed by spot visualization at 300° C. using a heat gun.

The nature of data set [2]: Substrate specificity, reducing end assay. The conditions noted are these: in % activity of chitin powder; 16 h at optimum conditions, 50 mg/ml substrate. Here is the method:
(§1) Different chitinous substrates were tested to assess the substrate affinity of the novel chitinases relative to untreated chitin powder. […] As expected, the conversion of colloidal chitin is more efficient compared to chitin powder as it provides an overall smaller particle size and thereby larger surface area. Chitosan powder (degree of acetylation: 15%) was also degraded efficiently and high chitosanase activity was observed especially for C1, C3, C4 and C5. Merely basal activity was detected when cellulose was utilized as a substrate for all enzymes.
The preparation of colloidal chitin was similar to the method described by Murthy and Bleakley with some minor differences [Murthy et al., Microbiol., 2012. 10(2): p. 1-5.]. Chitin powder (Carl Roth) was dissolved in concentrated hydrochloric acid (HCl) (5 g in 100 mL) and stirred at 4° C. for 24 h, after which the mixture was centrifuged at 4000×g for 15 min at 4° C. The precipitate was washed to neutral pH with distilled water and stored at 4° C.
(§2) Enzyme samples were incubated at different temperature (10-60° C., 10° C. increment) and pH (4-11, increment 1) using different buffer systems (Acetate, Tris-HCl, MES, total molar concentration 100 mM), as well as NaCl content (0, 1. 2.5, 5, 10 and 20% w/v) to determine optimum reaction conditions. All experiments were carried out at 1.0 ml scale using 2 μM of the respective enzymes and a 5% (wv) suspension of chitin powder extracted from shrimp shells (˜400.000 g/mol; Carl, Roth) in 100 mM MAT buffer. For the determination of the substrate specificity, chitin powder (5% w/v), glycol chitin (10% v/v), colloidal chitin (5% w/v), chitosan [DA 15-25%, medium molecular weight, Sigma-Aldrich] (5% w/v) and microcrystalline cellulose powder (Sigma Aldrich) (5% w/v) were investigated, respectively. The effect of several potential co-factors on activity was elucidated at a concentration of 1 mM. Additionally, the effect of detergents [SDS 0.5% (w/v), Tween-20 and Triton X-100 both at 0.5% (v/v)] and chemicals (Imidazole 100 mM, EDTA 1 mM) on enzymatic activity was assessed. Samples were incubated in a thermomixer for 16 h at 900 rpm. After incubation, samples were analyzed using the enzyme assay. Thermostability was assessed after incubation of recombinant chitinases at 60° C. for different durations followed by the quantification of residual enzyme activity under standard assay conditions.

Data set [3] in a line: Temperature, pH and NaCl optima and temperature stability of recombinant chitinases (reducing end assay). The settings on record: chitin powder; for Optimum pH: 30° C., pH 4-11; for Optimum salinity: pH 8, 30° C., 0-20% w/v NaCl; for Optimum temperature: pH 8, range 10-60° C. The protocol: All enzymes were first characterized regarding their temperature and pH-optima as well as the optimum NaCl content as the enzymes were isolated from a sea-water microorganism. As the future intention is to integrate these novel enzymes in a degradation processes of natural chitin, all parameters were determined using chitin powder as a substrate instead of pre-treated analogs such as colloidal chitin, glycol chitin or artificial fluorogenic substrates. […] (FIG. 5A). Next, enzyme temperature stability was investigated (FIG. 51). […] Enzyme C1 retained a 50% residual activity after 240 min incubation at 60° C., while the activity of the other chitinases dropped below 50% after 15 min and remained on that level.
Given the marine origin of the P. orarium strain, the effect of salt was also evaluated, testing the addition of NaCl to the standard buffer. […] Increasing NaCl amounts up to 20% (w/v) reduced enzyme activity substantially to 10% for C2, 4 and 5, with C1 and C3 showing highest tolerance (65% activity).
For the determination of enzymatic activity of recombinant chitinases, a reducing end assay was carried out [Svein et al., Carbohydr Polym, 2004. 56(1): p. 35-39.]. Fractions containing chitinases were incubated with 5% (w/v) chitin powder extracted from shrimp shells (˜400.000 g/mol; Carl Roth) in MAT buffer for 2 h in an overhead shaker at ambient temperature (standard conditions). Samples were centrifuged at 13000×g for 2 min and 40 μl of the supernatant was mixed with 40 μl 0.5 M NaOH and 40 μL of a reagent containing 1.5 mg/ml 3-Methyl-2-benzothiazolinonhydrazon and 0.75 mg/ml Dithiothreitol. Samples were incubated at 80° C. for 15 min and then thoroughly mixed with 80 μl of 0.5% (w/v) FeNH4(SO4)2)×12H2O, 0.5% (w/v) sulfamic acid and 0.25 M HCl. After cooling down to room temperature, 100 μl of the samples were measured at 620 nm. A calibration curve of N-acetyl-glucosamine was constructed freshly for each measuring cycle. One unit [U] was defined as the amount of enzyme required to release 1 μmol of reducing sugars per hour.
as §2

Data set [4] in a line: Substrate specificity, reducing end assay. The conditions noted are these: in % activity of chitin powder; 16 h at optimum conditions, 50 mg/ml substrate. Here is the method:
as §1, §2
The source holds these as a separate data set.

B1: Chitinase 4: chitinolytic enzyme from P. orarium, SEQ ID NO: 4, recombinant with PelB signal peptide and 6×His tag (protein, listed as Photobacterium orarium)
chain: MAQAAANCRPDGLYQTPGVTVPYCTVYDQDGREKMGVDHPRRVIGYFTSWRSGNDPQSSYLVNDIPWDSLTHINYAFVSIGSDGKVNIGNVNNPDNPAVGKEWPGVEIDPALGFKGHFGALATAKAQHGVKTLISIGGWAETGGHFDDNGNRVADGGFYTMTTNADGSINHQGIQTFADSAVAMMRQYKFDGLDIDYEYPTSMQGAGNPDDFAYSDAMRPHLMKSYHELMKVLREKLDQASAQDGHHYMLTIAAPSSGYLLRGMETMSVTKYLDYVNIMSYDLHGAWNDYVGHNASLFDSGLDAELEAGNVYGTAQYKKTGYLNTDWAYHYFRGSMPAGRINIGVPYYTRGWQGVTGGTNGLWGKAALPNQSDCPTGTGAGTSNCGYGAIGIDNMWHDKDANGNEMGAGSNPMWHAMNLANGVYGSYTAAYGLDPVNDPQDALTGTYTRHYDSVSVAPWLWNADKKVFLSTEDKESINTKADYVIEQGIGGIMFWELAGDYSCYNLDANGNRTTVDPTENACKTGNGEYHMGDTMTKAIHNKFATATPYGNTLAEGAIPTEAVNIDVSVTGFKVGDQNYPLNPTMTLTNKTGQTLPGGTEFQFDIPTSTPDNMSDQSGANLQVISSGHTRGDNIGGLDGNFHRVAFTLPSWKQLGNNESFELTLNYFLPISGPANYSVRVNNADYALAFEQPDLPIADLSNGGGDNGGGDGNNGDCVTTGVNTYPNWPQTDWAGNPSHAGTGDKIIYNGAVYQAKWWTNSVPGSDGSWDTVCTVQIE
modifications: PelB signal peptide; 6xHis tag; Chitinase 4
Consider B1, for which, in data set [1], the “hydrolysis products from chitin pentamers” value is “trimers and dimers”; the “hydrolysis products from chitin trimers” value is “dimers and monomers”; the “cleavage mechanism (exo-/endo-chitinase activity)” value is “endo-chitinase activity”. The “Relative activity, Colloidal chitin” value in data set [2] is 117.7 ± 6.3%. Besides, in data set [3], the “Optimum pH” value was 8, the Optimum salinity stood at 1 % NaCl and the Optimum temperature is 30 °C. Further, in data set [4], the “Relative activity, Cellulose” value was 10.4 ± 0.9%; the “Relative activity, Chitin” value stood at 100%; the “Relative activity, Chitosan” value was found to be 141.3 ± 5.5%.

B2: Chitinase 3: chitinolytic enzyme from P. orarium, SEQ ID NO: 3, recombinant with PelB signal peptide and 6×His tag (protein, listed as Photobacterium orarium)
chain: MALAAPGTPQLAWMETDYAIVEVDQAATAYKDLVTVKNAADVPVAWQRYSGETADHWKVKLNGNVAFEESINPASSGAGSTTLSITQGGQYALTVELCSGSGAEEACSSSPATNIVVADTDGSHLDPLPMNVDPNNGTYSTPADTVVGAYFVEWGVFGRKFTVDKIPAQNLTHILYGFIPVCGPNESLGEIESGNSLAALNRACAGTPDFEVAIHDPWAAVQMPQPQSGHTYSTPYKGNYGQLMALKQRYPDLKVIPSIGGWTLSDPFFSFTDKSKRDVFVASVKKFLQTWKFFDGVDIDWEFPGGKGANTTLGDPVNDGPAYVALMRELRTMLDGLEAETGRQFELTSAIGVGYDKIDVVNYAEASQYMDYIFNMSYDFYGGWSNVTGHQTALNCGSHLTADQCNGTGVDENGEPRQGPAYTTAHGVERLLAQGVPANKLVVGAAMYGRGWTGVTQASMTDPSNPMTGVGNGAVAGSWEAGVIDYKDVVTRYENKAGVVLGYDEQAEAPWAYDPSNGDLVTYDSPRSIMAKGQYVRDLGLAGLFAWEIDADNGDILNAMQESLAGAPAGNRAPVARAGSDQQVNTAATVTLNGSSSTDSDGQIAGYQWVQTSGPALTLNGANTASATISVPDVTVDTQYVFTLTVTDNEGATATDSITVTAKAPGAQNTAPVASLTGPGTANADDVITLDASQSTDADGDTLTYDWTVPAGVNAVINGSSLSFTADSYTTDTALSFSVSVSDGTASDAASLTVTIAKDESGTGGEGDFPAYVEGTAYQAGDQVSNGGVNFECKPYPYSGWCSGAAWAYEPGVGVYWQDAWTQLIE
modifications: PelB signal peptide; 6xHis tag; Chitinase 3
Take B2: in data set [1], the “hydrolysis products from chitin pentamers” value is “dimers and monomers”; the “hydrolysis products from chitin trimers” value is “dimers and monomers”; the “cleavage mechanism (exo-/endo-chitinase activity)” value is on record as “exo-chitinase activity”. In addition, in data set [2], the “Relative activity, Colloidal chitin” value is 133.4 ± 6.5%. For the same molecule, in data set [3], the “Optimum pH” value amounted to 8, the Optimum salinity came out at 5 % NaCl and the Optimum temperature came to 30 °C. In data set [4], the “Relative activity, Cellulose” value stood at 9.4 ± 0.9%; the “Relative activity, Chitin” value was found to be 100%; the “Relative activity, Chitosan” value stood at 113.4 ± 9.0%.
